From US20220348894, “DNA MODIFYING ENZYMES AND ACTIVE FRAGMENTS AND VARIANTS THEREOF AND METHODS OF USE” (LifeEDIT Therapeutics, Inc., published 2022)

Legend:
APG07433.1 = biological target: T1, APG07433.1 (Bacillus sp.); experiment: cell_activity; editing rate HEK293T; PAM 3' of target
T1 chain: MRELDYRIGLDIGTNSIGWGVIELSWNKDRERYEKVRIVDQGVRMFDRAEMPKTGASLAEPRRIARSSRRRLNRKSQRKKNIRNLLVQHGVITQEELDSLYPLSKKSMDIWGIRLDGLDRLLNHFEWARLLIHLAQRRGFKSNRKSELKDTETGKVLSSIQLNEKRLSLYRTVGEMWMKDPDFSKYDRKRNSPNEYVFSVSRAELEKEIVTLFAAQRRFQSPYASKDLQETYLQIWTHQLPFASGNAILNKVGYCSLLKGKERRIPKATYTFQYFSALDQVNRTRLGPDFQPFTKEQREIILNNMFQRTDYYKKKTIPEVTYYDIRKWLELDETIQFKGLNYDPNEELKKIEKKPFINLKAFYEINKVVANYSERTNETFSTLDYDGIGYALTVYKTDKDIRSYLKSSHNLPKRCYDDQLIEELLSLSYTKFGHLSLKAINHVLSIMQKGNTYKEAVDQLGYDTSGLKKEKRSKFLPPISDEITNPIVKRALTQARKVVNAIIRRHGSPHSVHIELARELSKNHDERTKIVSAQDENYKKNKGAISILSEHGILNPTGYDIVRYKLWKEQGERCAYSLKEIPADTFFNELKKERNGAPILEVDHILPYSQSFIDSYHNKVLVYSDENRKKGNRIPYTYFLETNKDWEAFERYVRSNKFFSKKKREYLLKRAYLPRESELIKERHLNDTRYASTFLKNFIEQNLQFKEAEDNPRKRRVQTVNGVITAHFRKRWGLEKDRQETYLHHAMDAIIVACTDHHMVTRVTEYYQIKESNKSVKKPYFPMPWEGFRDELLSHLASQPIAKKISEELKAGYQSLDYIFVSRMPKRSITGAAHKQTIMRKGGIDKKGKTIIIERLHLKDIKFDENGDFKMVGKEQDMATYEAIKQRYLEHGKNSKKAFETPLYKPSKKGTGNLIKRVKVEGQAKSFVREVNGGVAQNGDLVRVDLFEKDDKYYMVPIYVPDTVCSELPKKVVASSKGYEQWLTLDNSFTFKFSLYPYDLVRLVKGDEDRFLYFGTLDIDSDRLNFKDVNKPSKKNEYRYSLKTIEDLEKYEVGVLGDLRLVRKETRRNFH
Description: (§1) Through alignment with closely related homologs, a unique 8 amino acid region at positions 590-597 was identified in APG07433.1 and its close homolog APG08290.1 (described in WO 2019/236566 and set forth herein as SEQ ID NO: 60). This region, set forth as SEQ ID NO: 365 for APG07433.1 and SEQ ID NO: 367 for APG08290.1, was removed from both proteins, resulting in variant RGNs APG07433.1-del (SEQ ID NO: 366) and APG08290.1-del (SEQ ID NO: 368). These deletion variants and their corresponding wild-type RGNs were assayed for editing activity in HEK293T cells using the guide RNAs indicated in Tables 32 and 33 following methods similar to those described in Example 1.

[1] = biological target: T2, APG07433.1-del (residues 590-597 deleted); experiment: as above
T2 chain: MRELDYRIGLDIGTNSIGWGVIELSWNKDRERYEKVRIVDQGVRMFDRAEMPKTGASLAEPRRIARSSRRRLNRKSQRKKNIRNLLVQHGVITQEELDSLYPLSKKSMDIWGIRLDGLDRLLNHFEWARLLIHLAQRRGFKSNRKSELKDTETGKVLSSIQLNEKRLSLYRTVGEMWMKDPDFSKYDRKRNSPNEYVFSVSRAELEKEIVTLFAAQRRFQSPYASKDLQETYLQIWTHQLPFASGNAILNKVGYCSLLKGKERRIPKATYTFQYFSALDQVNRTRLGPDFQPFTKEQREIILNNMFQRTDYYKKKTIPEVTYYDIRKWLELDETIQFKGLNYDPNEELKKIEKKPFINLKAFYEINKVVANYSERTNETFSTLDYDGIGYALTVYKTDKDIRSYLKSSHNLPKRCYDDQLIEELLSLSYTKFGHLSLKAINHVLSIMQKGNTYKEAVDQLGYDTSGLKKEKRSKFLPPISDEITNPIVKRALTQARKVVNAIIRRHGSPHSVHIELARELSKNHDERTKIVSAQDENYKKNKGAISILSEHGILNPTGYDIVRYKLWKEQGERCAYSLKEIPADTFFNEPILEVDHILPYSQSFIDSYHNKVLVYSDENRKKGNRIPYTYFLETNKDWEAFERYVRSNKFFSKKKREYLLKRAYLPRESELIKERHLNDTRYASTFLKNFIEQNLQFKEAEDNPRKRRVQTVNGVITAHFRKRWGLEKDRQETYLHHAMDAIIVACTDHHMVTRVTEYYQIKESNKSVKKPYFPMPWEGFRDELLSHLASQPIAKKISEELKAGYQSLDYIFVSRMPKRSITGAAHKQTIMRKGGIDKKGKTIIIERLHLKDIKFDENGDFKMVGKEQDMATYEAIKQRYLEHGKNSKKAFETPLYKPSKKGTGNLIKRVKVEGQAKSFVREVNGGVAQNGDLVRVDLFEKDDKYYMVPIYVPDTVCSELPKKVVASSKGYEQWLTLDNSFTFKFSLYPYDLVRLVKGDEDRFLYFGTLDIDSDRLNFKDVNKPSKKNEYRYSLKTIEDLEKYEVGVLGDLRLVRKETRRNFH
Description: as §1

APG08290.1-del = biological target: T3, APG08290.1-del; experiment: cell_activity; editing rate HEK293T; PAM not stated
T3 chain: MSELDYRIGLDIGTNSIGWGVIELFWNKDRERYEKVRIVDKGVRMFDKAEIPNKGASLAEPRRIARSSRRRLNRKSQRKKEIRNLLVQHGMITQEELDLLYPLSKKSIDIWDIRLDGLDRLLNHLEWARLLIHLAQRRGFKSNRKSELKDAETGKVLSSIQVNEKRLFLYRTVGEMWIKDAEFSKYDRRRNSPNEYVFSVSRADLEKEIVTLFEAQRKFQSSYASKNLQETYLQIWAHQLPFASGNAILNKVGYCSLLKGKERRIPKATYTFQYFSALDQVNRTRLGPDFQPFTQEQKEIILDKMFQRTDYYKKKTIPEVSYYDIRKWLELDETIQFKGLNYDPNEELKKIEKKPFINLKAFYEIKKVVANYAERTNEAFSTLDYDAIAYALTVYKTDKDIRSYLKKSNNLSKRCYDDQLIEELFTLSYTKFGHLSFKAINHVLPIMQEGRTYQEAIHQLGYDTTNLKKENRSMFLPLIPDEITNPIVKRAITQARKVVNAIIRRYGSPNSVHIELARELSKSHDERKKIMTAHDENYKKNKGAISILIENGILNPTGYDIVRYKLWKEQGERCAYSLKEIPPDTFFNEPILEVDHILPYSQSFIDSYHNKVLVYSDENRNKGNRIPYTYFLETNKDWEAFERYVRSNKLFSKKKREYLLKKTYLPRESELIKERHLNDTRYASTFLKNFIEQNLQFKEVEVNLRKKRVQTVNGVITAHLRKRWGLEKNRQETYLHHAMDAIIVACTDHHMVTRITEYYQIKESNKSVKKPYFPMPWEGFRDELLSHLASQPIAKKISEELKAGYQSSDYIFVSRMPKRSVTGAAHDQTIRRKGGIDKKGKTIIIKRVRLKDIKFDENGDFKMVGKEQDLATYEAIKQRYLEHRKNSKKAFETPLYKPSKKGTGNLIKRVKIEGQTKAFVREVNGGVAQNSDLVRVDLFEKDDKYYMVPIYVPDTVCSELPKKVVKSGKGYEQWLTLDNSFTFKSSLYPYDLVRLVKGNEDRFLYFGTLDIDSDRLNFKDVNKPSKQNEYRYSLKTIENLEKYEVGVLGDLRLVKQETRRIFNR
Description: as §1

APG08290.1 = biological target: T4, APG08290.1 (Bacillus sp.); experiment: as above
T4 chain: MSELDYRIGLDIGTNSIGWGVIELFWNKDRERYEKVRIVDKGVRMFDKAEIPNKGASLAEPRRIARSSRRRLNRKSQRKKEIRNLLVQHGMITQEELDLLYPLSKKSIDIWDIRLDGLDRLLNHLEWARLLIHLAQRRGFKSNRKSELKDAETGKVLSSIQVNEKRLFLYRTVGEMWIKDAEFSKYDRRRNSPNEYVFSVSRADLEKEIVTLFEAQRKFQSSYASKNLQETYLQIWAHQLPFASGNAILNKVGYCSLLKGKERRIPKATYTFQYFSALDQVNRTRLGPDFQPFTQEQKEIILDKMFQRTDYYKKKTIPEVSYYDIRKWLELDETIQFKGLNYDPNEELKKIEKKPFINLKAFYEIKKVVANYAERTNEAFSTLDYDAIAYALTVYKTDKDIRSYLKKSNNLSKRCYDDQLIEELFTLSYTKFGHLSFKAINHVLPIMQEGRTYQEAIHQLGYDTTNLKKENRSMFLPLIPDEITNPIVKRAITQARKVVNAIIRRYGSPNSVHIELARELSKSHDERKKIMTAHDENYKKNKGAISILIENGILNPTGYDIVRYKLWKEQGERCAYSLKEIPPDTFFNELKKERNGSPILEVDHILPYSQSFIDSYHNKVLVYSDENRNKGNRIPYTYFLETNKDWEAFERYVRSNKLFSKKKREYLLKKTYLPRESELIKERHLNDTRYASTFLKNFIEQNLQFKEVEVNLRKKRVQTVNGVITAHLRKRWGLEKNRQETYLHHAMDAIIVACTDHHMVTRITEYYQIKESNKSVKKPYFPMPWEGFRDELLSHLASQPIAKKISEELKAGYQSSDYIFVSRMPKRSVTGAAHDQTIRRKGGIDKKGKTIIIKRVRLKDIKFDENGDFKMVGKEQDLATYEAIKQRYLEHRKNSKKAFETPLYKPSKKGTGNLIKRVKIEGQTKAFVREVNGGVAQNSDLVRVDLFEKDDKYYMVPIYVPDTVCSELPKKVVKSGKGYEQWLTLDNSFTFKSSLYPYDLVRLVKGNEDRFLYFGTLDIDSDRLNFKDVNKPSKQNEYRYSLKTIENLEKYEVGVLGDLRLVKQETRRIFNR
Description: as §1

B1: SGN000169 sgRNA ; SGN000169 target (ssRNA ; dsDNA)
RNA: CACAUCUCGAGCAAGACGUUGUCAUAGUUCCAUUAAAGCCAAAAGUGGCUUUGAUGUUUCUAUGAUAAGGGUUUCGACCCGUGGCGUCGGGGAUCGCCUGCCCAUUGAAAUGGGCUUCUCCCCAUUUAUU
DNA 1: CACATCTCGAGCAAGACGTT
DNA 2: AACGTCTTGCTCGAGATGTG
activity (APG07433.1): 13.4%
activity [1]: 15.5%

B2: SGN000929 sgRNA ; SGN000929 target (ssRNA ; dsDNA)
RNA: AUCUGGAGGGAACUUACAGCAUAUGGUCAUAGUUCCAUGAAAGCCAAAAGUGGCUUUGAUGUUUCUAUGAUAAGGGUUUCGGCCCGUGGCGUCGGGGAUCGCCUGCCCAUUCCGAUGGGCUUCUCCCCAUUUAUU
DNA 1: ATCTGGAGGGAACTTACAGCATATG
DNA 2: CATATGCTGTAAGTTCCCTCCAGAT
activity (APG08290.1-del): 0.61%
activity (APG08290.1): 1.83%

B3: SGN000139 sgRNA (Table 32) ; SGN000139 target (Table 32) (ssRNA ; dsDNA)
RNA: AGGUUUUAAUGGCCCAGCCUGUCAUAGUUCCAUUAAAGCCAAAAGUGGCUUUGAUGUUUCUAUGAUAAGGGUUUCGACCCGUGGCGUCGGGGAUCGCCUGCCCAUUGAAAUGGGCUUCUCCCCAUUUAUU
DNA 1: AGGTTTTAATGGCCCAGCCT
DNA 2: AGGCTGGGCCATTAAAACCT
activity (APG07433.1): 11.1%

B4: SGN000186 sgRNA (Table 32) ; SGN000186 target (Table 32) (ssRNA ; dsDNA)
RNA: GGACAGUGCGCAUCUCCCUGGUCAUAGUUCCAUUAAAGCCAAAAGUGGCUUUGAUGUUUCUAUGAUAAGGGUUUCGACCCGUGGCGUCGGGGAUCGCCUGCCCAUUGAAAUGGGCUUCUCCCCAUUUAUU
DNA 1: GGACAGTGCGCATCTCCCTG
DNA 2: CAGGGAGATGCGCACTGTCC
activity [1]: 15.2%

B5: SGN000930 sgRNA (Table 33) ; SGN000930 target (Table 33) (ssRNA ; dsDNA)
RNA: GAACAACUCAAAUGGAAAUGAAUAUGUCAUAGUUCCAUGAAAGCCAAAAGUGGCUUUGAUGUUUCUAUGAUAAGGGUUUCGGCCCGUGGCGUCGGGGAUCGCCUGCCCAUUCCGAUGGGCUUCUCCCCAUUUAUU
DNA 1: GAACAACTCAAATGGAAATGAATAT
DNA 2: ATATTCATTTCCATTTGAGTTGTTC
activity (APG08290.1-del): 6.47%
activity (APG08290.1): 9.93%
